Data reported in IntAct's records for PubMed 29688405.

Legend:
frem2_human FREM2 = frem2_human FREM2 (UniProt Q5SZK8)
frem1_human FREM1 = frem1_human FREM1 (UniProt Q5H8C1)

Chain of UniProt Q5SZK8 (Q5SZK8 whole entry): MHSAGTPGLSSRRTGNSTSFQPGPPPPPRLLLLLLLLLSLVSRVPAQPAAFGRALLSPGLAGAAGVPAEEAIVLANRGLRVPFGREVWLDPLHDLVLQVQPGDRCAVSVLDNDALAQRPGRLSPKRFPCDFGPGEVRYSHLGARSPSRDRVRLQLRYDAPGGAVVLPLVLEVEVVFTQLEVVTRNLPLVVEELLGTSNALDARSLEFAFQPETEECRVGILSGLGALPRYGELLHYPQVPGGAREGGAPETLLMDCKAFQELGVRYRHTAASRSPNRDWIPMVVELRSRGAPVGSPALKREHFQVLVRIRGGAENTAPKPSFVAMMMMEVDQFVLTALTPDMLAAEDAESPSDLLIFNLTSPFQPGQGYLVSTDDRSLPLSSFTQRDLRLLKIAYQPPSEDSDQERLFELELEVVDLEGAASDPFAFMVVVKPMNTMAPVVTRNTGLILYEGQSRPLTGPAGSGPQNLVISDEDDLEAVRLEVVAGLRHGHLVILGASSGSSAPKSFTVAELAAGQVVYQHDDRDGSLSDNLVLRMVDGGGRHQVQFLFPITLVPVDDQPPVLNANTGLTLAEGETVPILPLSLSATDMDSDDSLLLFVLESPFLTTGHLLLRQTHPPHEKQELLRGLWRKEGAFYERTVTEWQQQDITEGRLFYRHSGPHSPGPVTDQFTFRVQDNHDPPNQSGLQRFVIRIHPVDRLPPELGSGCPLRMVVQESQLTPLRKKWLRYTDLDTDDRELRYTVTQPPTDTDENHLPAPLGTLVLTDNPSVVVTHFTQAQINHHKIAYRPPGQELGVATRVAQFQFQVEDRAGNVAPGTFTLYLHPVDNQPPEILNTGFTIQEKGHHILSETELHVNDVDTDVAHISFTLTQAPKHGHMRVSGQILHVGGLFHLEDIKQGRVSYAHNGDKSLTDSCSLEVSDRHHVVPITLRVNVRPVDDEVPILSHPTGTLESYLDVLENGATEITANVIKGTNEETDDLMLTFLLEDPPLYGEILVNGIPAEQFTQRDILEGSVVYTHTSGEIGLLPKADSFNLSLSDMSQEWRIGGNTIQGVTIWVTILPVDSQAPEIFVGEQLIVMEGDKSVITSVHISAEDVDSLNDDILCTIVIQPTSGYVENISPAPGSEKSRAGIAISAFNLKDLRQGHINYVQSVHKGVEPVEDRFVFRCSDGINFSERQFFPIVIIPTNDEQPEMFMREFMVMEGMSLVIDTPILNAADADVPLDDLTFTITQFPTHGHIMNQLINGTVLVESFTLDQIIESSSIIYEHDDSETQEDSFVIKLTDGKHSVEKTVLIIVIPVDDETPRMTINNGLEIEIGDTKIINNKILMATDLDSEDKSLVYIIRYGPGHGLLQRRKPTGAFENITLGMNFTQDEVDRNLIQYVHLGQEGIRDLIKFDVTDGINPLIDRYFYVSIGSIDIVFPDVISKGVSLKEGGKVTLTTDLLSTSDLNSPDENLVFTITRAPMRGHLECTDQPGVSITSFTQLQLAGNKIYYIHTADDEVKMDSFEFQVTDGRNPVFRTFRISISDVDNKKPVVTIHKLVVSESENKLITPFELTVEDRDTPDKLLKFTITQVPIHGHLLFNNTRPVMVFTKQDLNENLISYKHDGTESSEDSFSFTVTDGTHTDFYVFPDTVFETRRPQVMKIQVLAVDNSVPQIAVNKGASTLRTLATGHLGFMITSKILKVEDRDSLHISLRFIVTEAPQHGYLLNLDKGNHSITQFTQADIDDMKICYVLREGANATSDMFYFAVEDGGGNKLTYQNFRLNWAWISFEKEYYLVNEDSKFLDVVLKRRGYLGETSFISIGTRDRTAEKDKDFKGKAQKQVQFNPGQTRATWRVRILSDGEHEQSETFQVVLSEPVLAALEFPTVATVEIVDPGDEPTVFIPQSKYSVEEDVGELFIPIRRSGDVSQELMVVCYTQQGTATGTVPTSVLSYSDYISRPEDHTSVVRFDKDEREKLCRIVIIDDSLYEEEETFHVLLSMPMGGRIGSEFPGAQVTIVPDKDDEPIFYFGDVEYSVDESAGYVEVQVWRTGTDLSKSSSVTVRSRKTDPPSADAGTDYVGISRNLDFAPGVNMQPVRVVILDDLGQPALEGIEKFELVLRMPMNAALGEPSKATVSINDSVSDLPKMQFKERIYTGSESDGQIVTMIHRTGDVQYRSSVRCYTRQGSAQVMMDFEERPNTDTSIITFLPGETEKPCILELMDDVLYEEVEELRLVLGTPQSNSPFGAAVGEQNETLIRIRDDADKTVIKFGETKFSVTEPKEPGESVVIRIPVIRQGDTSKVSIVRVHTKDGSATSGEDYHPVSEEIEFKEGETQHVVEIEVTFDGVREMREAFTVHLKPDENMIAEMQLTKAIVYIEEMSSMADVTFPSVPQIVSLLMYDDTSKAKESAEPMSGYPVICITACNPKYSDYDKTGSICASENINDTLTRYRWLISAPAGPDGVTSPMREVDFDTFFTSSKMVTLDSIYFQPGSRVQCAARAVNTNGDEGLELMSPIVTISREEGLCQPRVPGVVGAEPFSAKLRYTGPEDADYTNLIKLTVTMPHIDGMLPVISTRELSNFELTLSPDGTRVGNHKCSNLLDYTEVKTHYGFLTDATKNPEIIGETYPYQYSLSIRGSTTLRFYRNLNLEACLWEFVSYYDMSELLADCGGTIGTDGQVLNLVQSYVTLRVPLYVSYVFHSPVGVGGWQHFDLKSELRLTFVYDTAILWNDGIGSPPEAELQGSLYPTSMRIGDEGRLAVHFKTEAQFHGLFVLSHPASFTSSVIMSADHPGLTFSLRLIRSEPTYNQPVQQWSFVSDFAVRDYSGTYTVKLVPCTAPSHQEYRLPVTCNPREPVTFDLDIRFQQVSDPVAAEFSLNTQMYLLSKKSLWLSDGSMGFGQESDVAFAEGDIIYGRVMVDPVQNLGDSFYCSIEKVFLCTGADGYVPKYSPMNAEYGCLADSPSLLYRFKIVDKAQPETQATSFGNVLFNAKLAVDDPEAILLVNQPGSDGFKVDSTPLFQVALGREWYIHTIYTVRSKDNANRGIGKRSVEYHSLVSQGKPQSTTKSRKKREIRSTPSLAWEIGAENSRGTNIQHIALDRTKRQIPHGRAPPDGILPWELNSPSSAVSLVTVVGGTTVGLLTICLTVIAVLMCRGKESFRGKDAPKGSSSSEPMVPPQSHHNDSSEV

Substance	effect of a mutation on the interaction (frem2_human FREM2)	effect of a mutation on the interaction (frem1_human FREM1)
FRAS1-related extracellular matrix protein 1 (Homo sapiens), Q5H8C1 L1324R	disrupting interaction strength	
FRAS1-related extracellular matrix protein 1 (Homo sapiens), Q5H8C1 R649W	disrupting interaction strength	
FRAS1-related extracellular matrix protein 2 (Homo sapiens), Q5SZK8 E1972K		disrupting interaction strength
FRAS1-related extracellular matrix protein 2 (Homo sapiens), Q5SZK8 R2167W		decreasing interaction strength
